Results on one molecule are retold here after US20180245075, “INTEGRATED SYSTEM FOR PROGRAMMABLE DNA METHYLATION” (Trustees of Boston University, published 2018).

Data set [1] concerns the target ZF10-1-Dam(WT) writer (synthetic; Escherichia coli Dam, UniProt P0AEE8 SEQ:21-472). Kind of data set: cell_activity; with DpnI-VP64, episomal interspersed reporter. Particulars: tags: NLS, ZF10-1 six-finger array fused to Dam. On the procedure: Reporter plasmid was co-transfected with Writer and Reader-Effector constructs, and single-cell GFP levels were measured with flow cytometry two days post-transfection. […] Specific constructs corresponding to the data below were: Reporter: [8XZF_14XGATC_interspersed] minimal CMV promoter; Writer: minCMV-ZF10-1-Dam (WT); and Reader-Effector: UBC-NLS-DpnI DBD-VP64.
Flow cytometry measurements were performed using an Attune NxT Flow Cytometer (Thermo Fisher Scientific) equipped with a high-throughput auto-sampler. Typically, 50,000 or 70,000 events were acquired for transient transfection or stable cell line experiments, respectively. Cells were gated by forward (FSC) and side scatter (SSC) distributions, and either iRFP or mCherry expression for transfection- or integration-positive populations, respectively. For experiments with transient transfection of synI/synR modules (FIGS. 9A-9C), geometric means of the GFP fluorescence distributions were calculated using FLOWJO (Treestar Software). GFP fold change was then calculated by normalizing mean GFP intensity to reporter-only controls, unless otherwise noted. For spreading and memory experiments (with integrated constructs), the percentage of GFP activated cells was quantified using a GFP+gate that contains ˜0.5-1% of negative control cells (FIG. 17E). […]

For data set [2], the target named is ZF10-1-Dam(N132A) writer (synI) (synthetic; Escherichia coli Dam, UniProt P0AEE8 SEQ:21-472). Briefly: cell_activity; integrated Clustered Reporter, GATC 140 bp downstream, vs mCherry-Dam; ~6-fold on transient reporter (p253). The conditions noted are these: tags: NLS, ZF10-1 six-finger array fused to Dam. On the procedure:
Fraction methylation was measured using m6A-qPCR at a single GATC site proximal to the ZF BS array in the singly integrated Clustered Reporter (6th site, 140 bp downstream from end of ZF array). (n=3; error bars, SD). […] (n=3; error bars, SD). […] Diagonal line represents no enrichment in ZF sequence-specific methylation over “background” methylation. Dam N132A and WT are marked in red and black, respectively. (n=3; error bars, SD). […] Cells were transfected with the indicated constructs: Interspersed Reporter only, ZF-VP64 constitutively expressed from pUBC, synI^NT (Dam WT) constitutively expressed from a strong promoter (pCLPIT with no Dox induction), synI^NT (Dam WT) constitutively expressed from a weak promoter (pMinCMV), and synI^NT (Dam N132A) constitutively expressed from a weak promoter (pMinCMV). Genomic DNA (gDNA) was isolated 2 days following transfection, digested with or without DpnII, run out on an agarose gel (top), and the bands used to quantify total fraction methylated DNA (bottom). Undigested bands appearing at the top of each lane in DpnII-treated samples represent methylated (protected) gDNA, while […] gDNA fragments that are digested by DpnII appear as a smear (from ˜0.3-2 kb). Total fraction methylated gDNA is calculated as undigested gDNA in DpnII-treated samples normalized by total gDNA. […]

Bounds are passed on as bounds.

B1: ZF10-1 binding sequence (BS), arrayed in reporter (dsDNA)
DNA 1: CGGCGTAGCCGATGTCGCGC
DNA 2: GCGCGACATCGGCTACGCCG
Take B1: the figures for the activity in data set [1] and in data set [2] were over 100 fold GFP activation and about 10 fold m6A enrichment, respectively.
